Data as given in publication PMC12381156.

Molecular target: G protein-coupled bile acid receptor 1 (GPBAR1), full-length human, with N-terminal FLAG and BRIL (human) (UniProt Q8TDU6)
Test: mass photometry; samples in 20 mM HEPES, 150 mM NaCl, 0.02%/0.002% LMNG/CHS, drop-diluted in PBS to 10 nM (apo-GPBAR1) and 30 nM (GPBAR1/Gs complex with P395 and Nb35); room temperature (18 °C)

Chain of UniProt Q8TDU6 (Q8TDU6 whole entry): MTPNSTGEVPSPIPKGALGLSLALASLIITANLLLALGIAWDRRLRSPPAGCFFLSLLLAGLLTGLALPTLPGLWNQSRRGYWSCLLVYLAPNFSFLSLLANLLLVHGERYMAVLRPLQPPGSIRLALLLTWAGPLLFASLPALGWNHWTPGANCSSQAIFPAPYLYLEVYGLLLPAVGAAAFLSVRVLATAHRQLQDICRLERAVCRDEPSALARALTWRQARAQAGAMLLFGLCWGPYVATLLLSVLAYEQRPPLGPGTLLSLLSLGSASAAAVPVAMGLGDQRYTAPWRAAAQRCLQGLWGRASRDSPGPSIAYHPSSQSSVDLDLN

stoichiometry N: 1
Substance: Gs heterotrimer (Gαs, Gβ1, Gγ2) (from UniProt P63096 1-18; P63092 16-394; P62873 2-340; P59768 1-71) (complex)
